# Results published in patent US20110002926A1 (MEDICAL RESEARCH COUNCIL, published 2011).
# Where two headings read alike, the source gives them in different places. Where no end group is shown, it is not given here.
# T1: E2 peptide B1 (not fully specified (residue 16, C-terminus); also: biotin at C-terminal GSGK, site not given here)
# T1 peptide: NLINTNGSWHINGSGK
# T2: Peptide D3 (also: C-terminal linker GSGK-biotin, biotin attachment not given here)
# T2 peptide: QLINTNGSWHINGSGK
# T3: peptide H6 (AP33 mimotope) (not fully specified (residue 16, C-terminus); printed as VELRNLGGTWRPGSGK-biotin; also: biotin at C-terminal GSGK, site not given here)
# T3 construct: Mimotope for AP33 identified by phage display; captured on streptavidin plates; also called mimotope H6; H6 mimotope
# T3 peptide: VELRNLGGTWRPGSGK
# Key:
# [1] = target: HCV E1E2 glycoproteins of genotype 1b (Con1) (Hepatitis C virus genotype 1b (Con1), UniProt Q9WMX2 384-746; Q9WMX2 192-383); assay: cell-based or functional assay
# Chain of HCV E1E2 glycoproteins of genotype 1b (Con1) (Q9WMX2 384-746 limits assumed, chain 1 of 2): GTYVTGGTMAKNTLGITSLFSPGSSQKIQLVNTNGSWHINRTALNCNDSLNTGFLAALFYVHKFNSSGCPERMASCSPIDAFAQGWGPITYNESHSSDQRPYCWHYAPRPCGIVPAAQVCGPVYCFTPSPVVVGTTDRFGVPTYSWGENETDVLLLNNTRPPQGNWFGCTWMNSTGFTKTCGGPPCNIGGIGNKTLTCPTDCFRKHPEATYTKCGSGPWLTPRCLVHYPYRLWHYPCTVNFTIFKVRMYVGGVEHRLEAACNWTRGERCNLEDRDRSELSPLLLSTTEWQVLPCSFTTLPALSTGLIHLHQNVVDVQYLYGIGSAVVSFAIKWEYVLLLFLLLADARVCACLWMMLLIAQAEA
# Chain of HCV E1E2 glycoproteins of genotype 1b (Con1) (Q9WMX2 192-383 limits assumed, chain 2 of 2): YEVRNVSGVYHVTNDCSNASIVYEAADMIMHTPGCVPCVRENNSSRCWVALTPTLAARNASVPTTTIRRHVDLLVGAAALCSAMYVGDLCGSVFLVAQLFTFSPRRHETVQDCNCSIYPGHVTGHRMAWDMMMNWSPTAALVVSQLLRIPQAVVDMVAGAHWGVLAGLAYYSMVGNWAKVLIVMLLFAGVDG
# [2] = target: HCV E1E2 glycoproteins of genotype 2a (J6) (Hepatitis C virus genotype 2a (J6), UniProt P26660 384-750; P26660 192-383); assay: cell-based or functional assay
# [3] = target: HCV E1E2 glycoproteins of genotype 2a JFH1 on HCVpp (Hepatitis C virus genotype 2a, UniProt Q99IB8 384-750; Q99IB8 192-383); assay: cell-based or functional assay
# Chain of HCV E1E2 glycoproteins of genotype 2a JFH1 on HCVpp (Q99IB8 384-750 limits assumed, chain 1 of 2): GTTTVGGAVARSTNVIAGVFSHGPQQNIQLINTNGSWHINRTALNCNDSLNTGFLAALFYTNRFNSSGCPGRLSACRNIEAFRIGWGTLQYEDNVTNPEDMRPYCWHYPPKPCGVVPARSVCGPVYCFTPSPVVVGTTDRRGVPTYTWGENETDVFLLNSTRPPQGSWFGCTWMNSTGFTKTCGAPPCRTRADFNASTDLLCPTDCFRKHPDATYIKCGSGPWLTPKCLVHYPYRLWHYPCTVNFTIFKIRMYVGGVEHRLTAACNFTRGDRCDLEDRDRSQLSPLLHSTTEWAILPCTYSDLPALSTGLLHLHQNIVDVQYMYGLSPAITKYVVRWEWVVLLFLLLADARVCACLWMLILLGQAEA
# Chain of HCV E1E2 glycoproteins of genotype 2a JFH1 on HCVpp (Q99IB8 192-383 limits assumed, chain 2 of 2): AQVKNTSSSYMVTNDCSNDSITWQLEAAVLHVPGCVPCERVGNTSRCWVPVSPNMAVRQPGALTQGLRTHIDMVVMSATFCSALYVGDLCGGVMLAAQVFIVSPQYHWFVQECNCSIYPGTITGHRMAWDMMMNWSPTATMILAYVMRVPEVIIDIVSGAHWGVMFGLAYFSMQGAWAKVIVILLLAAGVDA
# [4] = target: HCV E1E2 glycoproteins of genotype 3a F4/2-35 on HCVpp (Hepatitis C virus genotype 3a); assay: cell-based or functional assay
# [5] = target: HCV E1E2 glycoproteins of isolate 2A2.4 on HCVpp (Hepatitis C virus genotype 2); assay: cell-based or functional assay
# [6] = target: HCV E1E2 glycoproteins of isolate 4.21.16 on HCVpp (Hepatitis C virus genotype 4); assay: cell-based or functional assay
# [7] = target: HCV E1E2 glycoproteins of isolate 6.5.8 on HCVpp (Hepatitis C virus genotype 6); assay: cell-based or functional assay
# [8] = target: HCV E1E2 glycoproteins of isolate 1A20.8 on HCVpp (Hepatitis C virus genotype 1); assay: cell-based or functional assay
# [9] = target: HCV E1E2 glycoproteins of isolate 1B5.23 on HCVpp (Hepatitis C virus genotype 1); assay: cell-based or functional assay
# [10] = target: HCV E1E2 glycoproteins of isolate 2B1.1 on HCVpp (Hepatitis C virus genotype 2); assay: cell-based or functional assay
# [11] = target: HCV E1E2 glycoproteins of isolate 5.15.11 on HCVpp (Hepatitis C virus genotype 5); assay: cell-based or functional assay
# [12] = target: T4, soluble HCV E2 (sE2661), HIS-tagged, baculovirus expressed (Hepatitis C virus (genotype )); assay: BIAcore SPR, antibody captured on anti-human Fc chip, sE2 1.56-50 nM injected, 1:1 Langmuir fit
# T4 construct: extracellular domain; also called soluble E2
# [13] = target: T5, HCV E2 as part of the E1E2 heterodimer expressed on the surface of 293T cells (Hepatitis C virus (genotype )); assay: Scatchard analysis, 125I-antibody competition with unlabeled antibody on E1E2-transfected 293T cells
# T5 construct: whole, on cells; also called E1E2 Scatchard; cell surface expressed E2
# E2 peptide B1 [14] = target: T1, E2 peptide B1; assay: peptide ELISA, biotinylated peptide on streptavidin, COS7 supernatant, OD 655 nm
# Peptide D3 = target: T2, Peptide D3; assay: as above
# [15] = target: T3, peptide H6 (AP33 mimotope); assay: as above
# E2 peptide B1 [16] = target: T1, E2 peptide B1; assay: as above
binder,measurement,setting,value
"humanized AP33 antibody RH-C/RK2b (antibody, V domains shown, also called RH-C antibody) VH: QVQLQESGPGLVKPSETLSLTCTVSGDSITSGYWNWIRQPPGRALEWMGYISYSGSTYYNLSLRSRITISRDTSKNQYSLRLSSVTAADTAMYYCALITTTTYAMDYWGQGTTVTVSS VL: EIVLTQSPSSLSASVGDRVTITCRASESVDGYGNSFLHWFQQKPGKAPKLLIYLASNLNSGVPSRFSGSGSGTDFTLTISSLQPEDFATYYCQQNNVDPWTFGQGTKLEIK",EC50 of HCVpp entry into Huh-7.5 cells (luciferase),[1],0.511 µg/mL
same,EC50 of HCVpp entry into Huh-7.5 cells (luciferase),[2],0.793 µg/mL
same,"neutralization of HCVcc infection of Huh-7.5 cells (RT-qPCR), fold against AP33",[2],≥ 4.7 fold
same,IC50 of HCVpp infection of Huh-7 cells (luciferase),[3],0.64 µg/mL
same,IC90 of HCVpp infection of Huh-7 cells (luciferase),[3],7 µg/mL
same,IC50 of HCVpp infection of Huh-7 cells (luciferase),[4],< 0.41 µg/mL
same,IC90 of HCVpp infection of Huh-7 cells (luciferase),[4],2.15 µg/mL
same,IC50 of HCVpp infection of Huh-7 cells (luciferase),[5],0.51 µg/mL
same,IC90 of HCVpp infection of Huh-7 cells (luciferase),[5],6 µg/mL
same,IC50 of HCVpp infection of Huh-7 cells (luciferase),[6],< 0.41 µg/mL
same,IC90 of HCVpp infection of Huh-7 cells (luciferase),[6],0.92 µg/mL
same,IC50 of HCVpp infection of Huh-7 cells (luciferase),[7],< 0.41 µg/mL
same,IC90 of HCVpp infection of Huh-7 cells (luciferase),[7],1.8 µg/mL
same,IC50 of HCVpp infection of Huh-7 cells (luciferase),[8],1.6 µg/mL
same,IC90 of HCVpp infection of Huh-7 cells (luciferase),[8],15 µg/mL
same,IC50 of HCVpp infection of Huh-7 cells (luciferase),[9],0.9 µg/mL
same,IC90 of HCVpp infection of Huh-7 cells (luciferase),[9],8.3 µg/mL
same,IC50 of HCVpp infection of Huh-7 cells (luciferase),[10],3 µg/mL
same,IC90 of HCVpp infection of Huh-7 cells (luciferase),[10],> 15 µg/mL
same,IC50 of HCVpp infection of Huh-7 cells (luciferase),[11],0.053 µg/mL
same,IC90 of HCVpp infection of Huh-7 cells (luciferase),[11],0.82 µg/mL
same,Kd,[12],3.8 nM
same,Kd,[13],5 nM
"AP33 RH-B/RK2bc (antibody, V domains shown) VH: QVQLQESGPGLVKPSETLSLTCTVSGDSISSGYWNWIRQPPGRALEYMGYISYSGSTYYNLSLRSRITISRDTSKNQYSLRLSSVTAADTAMYYCALITTTTYAMDYWGQGTTVTVSS VL: EIVLTQSPSSLSASVGDRVTITCRASESVDGYGNSFLHWFQQKPGKAPKLLIYLASNLNSGVPSRFSGSGSRTDFTLTISSLQPEDFATYYCQQNNVDPWTFGQGTKLEIK",binding result,E2 peptide B1 [14],no binding (tested: about 800 ng/ml)
"RHb-h/Vl (humanized heavy chain RHb-h with chimeric AP33 light chain) (antibody, V domains shown, also called RHb-h/V1; the humanized heavy chain) VH: QVQLQESGPGLVKPSETLSLTCTVSGDSITSGYWNWIRQPPGRALEYMGYISYSGSTYYNLSLRSRITISRDTSKNQYSLRLSSVTAADTAMYYCALITTTTYAMDYWGQGTTVTVS VL: NIVLTQSPVSLAVSLGQRATISCRASESVDGYGNSFLHWFQQKPGQPPKLLIYLASNLNSGVPARFSGSGSRTDFTLTIDPVEADDAATYYCQQNNVDPWTFGGGTKLEIK",EC50 (read off the curve),Peptide D3,~0.02 µg/mL
same,EC50 (read off the curve),[15],~0.02 µg/mL
same,binding result,E2 peptide B1 [16],no binding (tested: about 500 ng/ml)
